Data reported in patent US20240076386A1 (Pfizer, published 2024).

Assays:
[1] = molecular target: T1, recombinant histidine-tagged cynomolgus monkey E-selectin (Sino Biologicals; 190169-C08H) (cynomolgus monkey, UniProt A0A2K5U7H9 22-554); experiment: direct binding ELISA, further assay
T1 construct: also called recombinant cynomolgus monkey E-selectin
T1 sequence: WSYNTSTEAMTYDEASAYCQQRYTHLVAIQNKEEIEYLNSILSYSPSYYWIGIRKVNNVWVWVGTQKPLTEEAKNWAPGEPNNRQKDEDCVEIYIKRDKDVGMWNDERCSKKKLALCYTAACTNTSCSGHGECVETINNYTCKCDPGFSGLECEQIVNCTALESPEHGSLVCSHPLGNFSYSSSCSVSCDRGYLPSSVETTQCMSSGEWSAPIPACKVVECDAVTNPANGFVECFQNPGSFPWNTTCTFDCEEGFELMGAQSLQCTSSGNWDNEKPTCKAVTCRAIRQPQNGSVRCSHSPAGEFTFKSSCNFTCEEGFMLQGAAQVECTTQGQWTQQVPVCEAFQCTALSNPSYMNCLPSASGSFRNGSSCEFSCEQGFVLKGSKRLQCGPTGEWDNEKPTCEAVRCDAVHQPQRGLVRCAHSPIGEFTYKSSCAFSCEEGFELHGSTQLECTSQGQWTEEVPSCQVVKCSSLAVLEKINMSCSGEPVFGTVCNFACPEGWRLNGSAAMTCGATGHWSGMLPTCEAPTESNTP
Procedure: Recombinant histidine tagged human P-, E- or L-selectin (Sino Biologicals), mouse E-selectin (Sino Biologicals), rat E-selectin (Sino Biologicals) and Cynomolgus monkey E-selectin (Sino Biologicals) stock solutions were prepared to a final concentration of 1 μg/mL in phosphate buffered saline without calcium and magnesium. Controls included an L-selectin directed antibody (BioLegend; 304811) or P-selectin directed antibody or a negative control IgG. One hundred μL per well of the diluted recombinant selectin proteins were added into a Ni-NTA HisSorb 96 well plate (Qiagen; 35061). Plates were incubated on an orbital shaker at room temperature for 2 hours. Following the incubation, the plates were washed 3 times with 200 μL of wash buffer (50 mM TRIS [trisaminomethane]; 150 mM sodium chloride; 0.05% polysorbate 20, pH 7.4). […] Anti L-selectin and anti-rat-E-selectin antibodies were detected using 1 to 25000 dilution of Peroxidase-conjugated AffiniPure Goat Anti-Mouse IgG (H+L); (Jackson ImnnunoResearch Lab).
Plates were washed and 100 μL per well of 1-Step Ultra TMB substrate (Thermo Scientific) was added and incubated for 5 minutes at room temperature. Reactions were stopped with 100 μL of 2 M sulfuric acid and absorbance read at 450 nm (Spectramax M5e).

[2] = molecular target: T2, recombinant histidine-tagged human E-selectin (Sino Biologicals; 13025-H08H) (human, UniProt P16581 22-556); experiment: neutralization of sialyl Lewis A ligand binding, soluble recombinant protein, competition ELISA
T2 construct: also called recombinant human E-selectin; soluble recombinant human E-selectin
T2 sequence (looked up): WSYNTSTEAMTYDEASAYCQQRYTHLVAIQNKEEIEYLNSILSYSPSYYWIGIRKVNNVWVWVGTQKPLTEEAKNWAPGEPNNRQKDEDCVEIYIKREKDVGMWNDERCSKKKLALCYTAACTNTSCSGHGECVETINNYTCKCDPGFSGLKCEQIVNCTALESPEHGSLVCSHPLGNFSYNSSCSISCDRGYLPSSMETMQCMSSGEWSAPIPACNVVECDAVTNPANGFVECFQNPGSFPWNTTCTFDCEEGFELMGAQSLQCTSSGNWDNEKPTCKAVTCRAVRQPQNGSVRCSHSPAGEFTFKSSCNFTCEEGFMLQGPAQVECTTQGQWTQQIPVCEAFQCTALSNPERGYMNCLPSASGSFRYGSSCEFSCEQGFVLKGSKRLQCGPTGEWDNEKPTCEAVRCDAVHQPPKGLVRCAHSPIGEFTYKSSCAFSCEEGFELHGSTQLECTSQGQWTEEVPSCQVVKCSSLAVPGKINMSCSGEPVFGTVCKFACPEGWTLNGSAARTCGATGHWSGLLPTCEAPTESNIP
Procedure: (§1) Recombinant histidine-tagged E-selectin; cynomolgus monkey E-selectin (Sino Biologicals; 190169-C08H) and human E-selectin (Sino Biologicals; 13025-H08H) stock solutions were prepared to a final concentration of 3 μg/mL in phosphate buffered saline (PBS) without calcium and magnesium. One hundred μL per well of the diluted recombinant E-selectin protein was added into a Ni-NTA HisSorb 96 well plate (Qiagen, 35061) and plates were incubated on an orbital shaker at room temperature for 2 hours. Sialyl Lewis A polyacrylamide biotin, a synthetic E-selectin ligand (GlycoTech corporation 01-044), was conjugated to streptavidin HRP (horse radish peroxidase) (Ultra Streptavidin HRP, Thermo Scientific N504) and diluted in assay diluent containing 2 mM calcium chloride (BD OptEIA buffer; BD Biosciences, 555213).

[3] = molecular target: T1, recombinant histidine-tagged cynomolgus …; experiment: competition ELISA on soluble E-selectin vs sialyl Lewis A, further assays
Procedure: as §1
(§2) Following the incubation, the plates were washed 5 times with 200 μL of wash buffer containing 2 mM of calcium chloride (50 mM TRIS [trisaminomethane]; 150 mM sodium chloride, 0.05% polysorbate 20, pH 7.4; 2 mM of calcium chloride). […] The final antibody concentration ranged from 200 nM to 0.09 nM and the final concentration of HRP conjugated Sialyl Lewis A was 5 μg/mL. […] Reactions were stopped with 100 μl of 2M sulfuric acid and absorbance read at 450 nm (Spectramax M5e). Data were analyzed and graphed using GraphPad Prism software (Version 8.0.2).

[4] = molecular target: T2, recombinant histidine-tagged human …; experiment: as above
Procedure: as §1, §2

- EC50 [1]: 0.071 to 0.075 nM
- IC50 [2]: 2.87 to 3.01 nM
- IC50 [3]: 2.45 nM
- IC50 [4]: 2.91 nM
B1: optimized anti-E-selectin antibody 1444 (antibody, human IgG1, kappa, V domains shown)
VH: EVQLVESGGGLVQPGGSLRLSCAASGYAIRSAYMHWVRQAPGKGLEWVARIDPANGNTIYVDSVTGRFTISADNAKNSAYLQMNSLRAEDTAVYYCAMDLYSTSEYWGQGTLVTVSS
VL: DIQMTQSPSSLSASVGDRVTITCKTSQNIERYLNWYQQKPGKAPKLLIYAASSLQSGVPSRFSGSGSGTDFTLTISSLQPEDFATYFCLQDNAWPLTFGQGTKVEIKR
notes: effector-null human IgG1, kappa
